Results taken from patent US7553821B2, “Methods for selectively modulating survivin apoptosis pathways” (Yale University, priority 2000, dated 2009).

Molecular target: T1, caspase-8 (Homo sapiens, UniProt Q14790)
T1 construct: endogenous in cells; host or cells: HeLa
Assay: Co-immunoprecipitation of survivin and caspase-8 from HeLa cells
Assay type: binding
Conditions: transfected HeLa cells
Procedure: The experimental conditions are the same as in A, except that HA-survivin and HA-survivin(T34A) immunoprecipitates were separately immunoblotted with antibodies to caspase-8 or HA. S, supernatant of HA-survivin immunoprecipitate. Arrow, position of ˜55 kDa proform caspase-8.
Transfection experiments. For transient transfection, HeLa cells in C-6 tissue culture plates (Costar, Cambridge, Mass.) at ˜60-70% confluency, were incubated in 1 ml of serum-free OptiMEM medium (Life Technologies, Gaithersburg, Md.) for 20 min, and transfected with 2.5 μg of the various plasmid cDNAs plus 9 μl Lipofectamine (Life Technologies). After a 5 h incubation at 37° C., the mixture was aspirated and substituted with complete growth medium for 48-72 h. To generate stable YUSAC-2 transfectants, a survivin(T34A) cDNA was inserted into the HindIII-SpeI sites of the pTet-splice vector (Dr. D. Schatz, Yale University School of Medicine), downstream of the regulatory sequences of the Tet-resistance operon (TetO). YUSAC-2 cells were transfected with 0.8 μg pTet-T34A, 0.8 μg of the transactivation/selection plasmid ptTA-Neo and 5 μl Lipofectamine in 1 ml of OptiMem. […] Gated GFP-expressing cells were analyzed for DNA content by flow cytometry on a FACSort (Becton Dickinson, San Jose, Calif.) using a Cell Quest software. […]

T1 sequence (Q14790 whole entry): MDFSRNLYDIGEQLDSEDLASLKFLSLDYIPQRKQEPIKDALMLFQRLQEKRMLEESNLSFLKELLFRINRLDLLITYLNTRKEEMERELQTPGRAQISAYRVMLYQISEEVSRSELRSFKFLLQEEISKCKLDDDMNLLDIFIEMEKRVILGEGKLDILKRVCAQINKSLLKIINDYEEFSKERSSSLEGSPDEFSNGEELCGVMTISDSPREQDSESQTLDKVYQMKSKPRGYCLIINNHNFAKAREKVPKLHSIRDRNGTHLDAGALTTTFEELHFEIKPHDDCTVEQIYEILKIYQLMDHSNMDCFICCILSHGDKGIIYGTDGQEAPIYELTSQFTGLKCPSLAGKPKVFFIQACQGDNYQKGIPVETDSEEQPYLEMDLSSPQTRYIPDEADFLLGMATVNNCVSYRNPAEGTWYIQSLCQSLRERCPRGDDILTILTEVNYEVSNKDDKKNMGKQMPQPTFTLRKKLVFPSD

In the case of “survivin(T34A): dominant-negative, non-phosphorylatable survivin mutant with Thr34→Ala substitution, expressed from transfected cDNA (also HA- or GFP-tagged)”, the “caspase-8 in immunoprecipitates by Western blotting” value is reported as “did not contain another upstream initiator caspase, caspase-8”.
